Experimental data reported in patent US20220119513A1 (ZOETIS SERVICES, published 2022).

Target: T1, TGFβ1 (R&D Systems)
T1 construct: also called TGFB1
Assay: single point SPR

T1 sequence (P01137 279-390): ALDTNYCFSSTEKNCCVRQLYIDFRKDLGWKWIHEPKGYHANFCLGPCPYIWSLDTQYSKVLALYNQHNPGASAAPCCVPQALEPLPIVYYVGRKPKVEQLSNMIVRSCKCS

B1: Can-SL501-VH3 D108E / Can-SL501-VL2 (antibody, V domains shown)
VH: EVQLVESGGDLVKPGGSLRLSCVASGFTFSSYGMHWVRQAPGKELEWVAVISYDGSIKYYADAVKGRFTISRDNAKNTLYLQMNSLRAEDTAVYYCARTGEYSGYDTEPQYSWGQGTTVTVSS
VL: EIVMTQSPGSLAGSAGESVSINCRASQGIGDDLGWYQQKPGERPKLLIYGTSTLQSGVPARFSSSGSGTDFTLTINNLQAEDVGDYYCLQDSNYPLTFGAGTK
  Kd: 0.341 nM

B2: Can-SL501-VH3 Y111M / Can-SL501-VL2 (antibody, V domains shown)
VH: EVQLVESGGDLVKPGGSLRLSCVASGFTFSSYGMHWVRQAPGKELEWVAVISYDGSIKYYADAVKGRFTISRDNAKNTLYLQMNSLRAEDTAVYYCARTGEYSGYDTDPQMSWGQGTTVTVSS
VL: EIVMTQSPGSLAGSAGESVSINCRASQGIGDDLGWYQQKPGERPKLLIYGTSTLQSGVPARFSSSGSGTDFTLTINNLQAEDVGDYYCLQDSNYPLTFGAGTK
  Kd: 1.17 nM

B3: Can-SL501-VH3 D108H / Can-SL501-VL2 (antibody, V domains shown)
VH: EVQLVESGGDLVKPGGSLRLSCVASGFTFSSYGMHWVRQAPGKELEWVAVISYDGSIKYYADAVKGRFTISRDNAKNTLYLQMNSLRAEDTAVYYCARTGEYSGYDTHPQYSWGQGTTVTVSS
VL: EIVMTQSPGSLAGSAGESVSINCRASQGIGDDLGWYQQKPGERPKLLIYGTSTLQSGVPARFSSSGSGTDFTLTINNLQAEDVGDYYCLQDSNYPLTFGAGTK
  Kd: 1.83 nM

B4: Can-SL501-VH3 Y111P / Can-SL501-VL2 (antibody, V domains shown)
VH: EVQLVESGGDLVKPGGSLRLSCVASGFTFSSYGMHWVRQAPGKELEWVAVISYDGSIKYYADAVKGRFTISRDNAKNTLYLQMNSLRAEDTAVYYCARTGEYSGYDTDPQPSWGQGTTVTVSS
VL: EIVMTQSPGSLAGSAGESVSINCRASQGIGDDLGWYQQKPGERPKLLIYGTSTLQSGVPARFSSSGSGTDFTLTINNLQAEDVGDYYCLQDSNYPLTFGAGTK
  Kd: 7.46 nM

B5: Can-SL501-VH3 P109Y / Can-SL501-VL2 (antibody, V domains shown)
VH: EVQLVESGGDLVKPGGSLRLSCVASGFTFSSYGMHWVRQAPGKELEWVAVISYDGSIKYYADAVKGRFTISRDNAKNTLYLQMNSLRAEDTAVYYCARTGEYSGYDTDYQYSWGQGTTVTVSS
VL: EIVMTQSPGSLAGSAGESVSINCRASQGIGDDLGWYQQKPGERPKLLIYGTSTLQSGVPARFSSSGSGTDFTLTINNLQAEDVGDYYCLQDSNYPLTFGAGTK
  Kd: 8.4 nM

B6: Can-SL501-VH3 P109S / Can-SL501-VL2 (antibody, V domains shown)
VH: EVQLVESGGDLVKPGGSLRLSCVASGFTFSSYGMHWVRQAPGKELEWVAVISYDGSIKYYADAVKGRFTISRDNAKNTLYLQMNSLRAEDTAVYYCARTGEYSGYDTDSQYSWGQGTTVTVSS
VL: EIVMTQSPGSLAGSAGESVSINCRASQGIGDDLGWYQQKPGERPKLLIYGTSTLQSGVPARFSSSGSGTDFTLTINNLQAEDVGDYYCLQDSNYPLTFGAGTK
  Kd: 4.97 nM

B7: Can-SL501-VH3 D108T / Can-SL501-VL2 (antibody, V domains shown)
VH: EVQLVESGGDLVKPGGSLRLSCVASGFTFSSYGMHWVRQAPGKELEWVAVISYDGSIKYYADAVKGRFTISRDNAKNTLYLQMNSLRAEDTAVYYCARTGEYSGYDTTPQYSWGQGTTVTVSS
VL: EIVMTQSPGSLAGSAGESVSINCRASQGIGDDLGWYQQKPGERPKLLIYGTSTLQSGVPARFSSSGSGTDFTLTINNLQAEDVGDYYCLQDSNYPLTFGAGTK
  Kd: 0.798 nM

B8: Can-SL501-VH3 P109W / Can-SL501-VL2 (antibody, V domains shown)
VH: EVQLVESGGDLVKPGGSLRLSCVASGFTFSSYGMHWVRQAPGKELEWVAVISYDGSIKYYADAVKGRFTISRDNAKNTLYLQMNSLRAEDTAVYYCARTGEYSGYDTDWQYSWGQGTTVTVSS
VL: EIVMTQSPGSLAGSAGESVSINCRASQGIGDDLGWYQQKPGERPKLLIYGTSTLQSGVPARFSSSGSGTDFTLTINNLQAEDVGDYYCLQDSNYPLTFGAGTK
  Kd: 6.9 nM

B9: Can-SL501-VH3 Y111H / Can-SL501-VL2 (antibody, V domains shown)
VH: EVQLVESGGDLVKPGGSLRLSCVASGFTFSSYGMHWVRQAPGKELEWVAVISYDGSIKYYADAVKGRFTISRDNAKNTLYLQMNSLRAEDTAVYYCARTGEYSGYDTDPQHSWGQGTTVTVSS
VL: EIVMTQSPGSLAGSAGESVSINCRASQGIGDDLGWYQQKPGERPKLLIYGTSTLQSGVPARFSSSGSGTDFTLTINNLQAEDVGDYYCLQDSNYPLTFGAGTK
  Kd: 4.5 nM

B10: Can-SL501-VH3 Q110H / Can-SL501-VL2 (antibody, V domains shown)
VH: EVQLVESGGDLVKPGGSLRLSCVASGFTFSSYGMHWVRQAPGKELEWVAVISYDGSIKYYADAVKGRFTISRDNAKNTLYLQMNSLRAEDTAVYYCARTGEYSGYDTDPHYSWGQGTTVTVSS
VL: EIVMTQSPGSLAGSAGESVSINCRASQGIGDDLGWYQQKPGERPKLLIYGTSTLQSGVPARFSSSGSGTDFTLTINNLQAEDVGDYYCLQDSNYPLTFGAGTK
  Kd: 5.76 nM

B11: Can-SL501-VH3 D108P / Can-SL501-VL2 (antibody, V domains shown)
VH: EVQLVESGGDLVKPGGSLRLSCVASGFTFSSYGMHWVRQAPGKELEWVAVISYDGSIKYYADAVKGRFTISRDNAKNTLYLQMNSLRAEDTAVYYCARTGEYSGYDTPPQYSWGQGTTVTVSS
VL: EIVMTQSPGSLAGSAGESVSINCRASQGIGDDLGWYQQKPGERPKLLIYGTSTLQSGVPARFSSSGSGTDFTLTINNLQAEDVGDYYCLQDSNYPLTFGAGTK
  Kd: 3.51 nM

B12: Can-SL501-VH3 Q110S / Can-SL501-VL2 (antibody, V domains shown)
VH: EVQLVESGGDLVKPGGSLRLSCVASGFTFSSYGMHWVRQAPGKELEWVAVISYDGSIKYYADAVKGRFTISRDNAKNTLYLQMNSLRAEDTAVYYCARTGEYSGYDTDPSYSWGQGTTVTVSS
VL: EIVMTQSPGSLAGSAGESVSINCRASQGIGDDLGWYQQKPGERPKLLIYGTSTLQSGVPARFSSSGSGTDFTLTINNLQAEDVGDYYCLQDSNYPLTFGAGTK
  Kd: 6.4 nM

B13: Can-SL501-VH3 D108S / Can-SL501-VL2 (antibody, V domains shown)
VH: EVQLVESGGDLVKPGGSLRLSCVASGFTFSSYGMHWVRQAPGKELEWVAVISYDGSIKYYADAVKGRFTISRDNAKNTLYLQMNSLRAEDTAVYYCARTGEYSGYDTSPQYSWGQGTTVTVSS
VL: EIVMTQSPGSLAGSAGESVSINCRASQGIGDDLGWYQQKPGERPKLLIYGTSTLQSGVPARFSSSGSGTDFTLTINNLQAEDVGDYYCLQDSNYPLTFGAGTK
  Kd: 0.724 nM

B14: Can-SL501-VH3 P109F / Can-SL501-VL2 (antibody, V domains shown)
VH: EVQLVESGGDLVKPGGSLRLSCVASGFTFSSYGMHWVRQAPGKELEWVAVISYDGSIKYYADAVKGRFTISRDNAKNTLYLQMNSLRAEDTAVYYCARTGEYSGYDTDFQYSWGQGTTVTVSS
VL: EIVMTQSPGSLAGSAGESVSINCRASQGIGDDLGWYQQKPGERPKLLIYGTSTLQSGVPARFSSSGSGTDFTLTINNLQAEDVGDYYCLQDSNYPLTFGAGTK
  Kd: 0.534 nM

B15: Can-SL501-VH3 D108Q / Can-SL501-VL2 (antibody, V domains shown)
VH: EVQLVESGGDLVKPGGSLRLSCVASGFTFSSYGMHWVRQAPGKELEWVAVISYDGSIKYYADAVKGRFTISRDNAKNTLYLQMNSLRAEDTAVYYCARTGEYSGYDTQPQYSWGQGTTVTVSS
VL: EIVMTQSPGSLAGSAGESVSINCRASQGIGDDLGWYQQKPGERPKLLIYGTSTLQSGVPARFSSSGSGTDFTLTINNLQAEDVGDYYCLQDSNYPLTFGAGTK
  Kd: 1.25 nM

B16: Can-SL501-VH3 Q110V / Can-SL501-VL2 (antibody, V domains shown)
VH: EVQLVESGGDLVKPGGSLRLSCVASGFTFSSYGMHWVRQAPGKELEWVAVISYDGSIKYYADAVKGRFTISRDNAKNTLYLQMNSLRAEDTAVYYCARTGEYSGYDTDPVYSWGQGTTVTVSS
VL: EIVMTQSPGSLAGSAGESVSINCRASQGIGDDLGWYQQKPGERPKLLIYGTSTLQSGVPARFSSSGSGTDFTLTINNLQAEDVGDYYCLQDSNYPLTFGAGTK
  Kd: 7.37 nM

B17: Can-SL501-VH3 Q110T / Can-SL501-VL2 (antibody, V domains shown)
VH: EVQLVESGGDLVKPGGSLRLSCVASGFTFSSYGMHWVRQAPGKELEWVAVISYDGSIKYYADAVKGRFTISRDNAKNTLYLQMNSLRAEDTAVYYCARTGEYSGYDTDPTYSWGQGTTVTVSS
VL: EIVMTQSPGSLAGSAGESVSINCRASQGIGDDLGWYQQKPGERPKLLIYGTSTLQSGVPARFSSSGSGTDFTLTINNLQAEDVGDYYCLQDSNYPLTFGAGTK
  Kd: 5.61 nM

B18: Can-SL501-VH3 P109H / Can-SL501-VL2 (antibody, V domains shown)
VH: EVQLVESGGDLVKPGGSLRLSCVASGFTFSSYGMHWVRQAPGKELEWVAVISYDGSIKYYADAVKGRFTISRDNAKNTLYLQMNSLRAEDTAVYYCARTGEYSGYDTDHQYSWGQGTTVTVSS
VL: EIVMTQSPGSLAGSAGESVSINCRASQGIGDDLGWYQQKPGERPKLLIYGTSTLQSGVPARFSSSGSGTDFTLTINNLQAEDVGDYYCLQDSNYPLTFGAGTK
  Kd: 1.35 nM

B19: Can-SL501-VH3 D108N / Can-SL501-VL2 (antibody, V domains shown)
VH: EVQLVESGGDLVKPGGSLRLSCVASGFTFSSYGMHWVRQAPGKELEWVAVISYDGSIKYYADAVKGRFTISRDNAKNTLYLQMNSLRAEDTAVYYCARTGEYSGYDTNPQYSWGQGTTVTVSS
VL: EIVMTQSPGSLAGSAGESVSINCRASQGIGDDLGWYQQKPGERPKLLIYGTSTLQSGVPARFSSSGSGTDFTLTINNLQAEDVGDYYCLQDSNYPLTFGAGTK
  Kd: 9.68 nM

B20: Can-SL501-VH3 Q110R / Can-SL501-VL2 (antibody, V domains shown)
VH: EVQLVESGGDLVKPGGSLRLSCVASGFTFSSYGMHWVRQAPGKELEWVAVISYDGSIKYYADAVKGRFTISRDNAKNTLYLQMNSLRAEDTAVYYCARTGEYSGYDTDPRYSWGQGTTVTVSS
VL: EIVMTQSPGSLAGSAGESVSINCRASQGIGDDLGWYQQKPGERPKLLIYGTSTLQSGVPARFSSSGSGTDFTLTINNLQAEDVGDYYCLQDSNYPLTFGAGTK
  Kd: 8.38 nM

B21: Can-SL501-VH3 P109G / Can-SL501-VL2 (antibody, V domains shown)
VH: EVQLVESGGDLVKPGGSLRLSCVASGFTFSSYGMHWVRQAPGKELEWVAVISYDGSIKYYADAVKGRFTISRDNAKNTLYLQMNSLRAEDTAVYYCARTGEYSGYDTDGQYSWGQGTTVTVSS
VL: EIVMTQSPGSLAGSAGESVSINCRASQGIGDDLGWYQQKPGERPKLLIYGTSTLQSGVPARFSSSGSGTDFTLTINNLQAEDVGDYYCLQDSNYPLTFGAGTK
  Kd: 1.59 nM

B22: Can-SL501-VH3 Y111W / Can-SL501-VL2 (antibody, V domains shown)
VH: EVQLVESGGDLVKPGGSLRLSCVASGFTFSSYGMHWVRQAPGKELEWVAVISYDGSIKYYADAVKGRFTISRDNAKNTLYLQMNSLRAEDTAVYYCARTGEYSGYDTDPQWSWGQGTTVTVSS
VL: EIVMTQSPGSLAGSAGESVSINCRASQGIGDDLGWYQQKPGERPKLLIYGTSTLQSGVPARFSSSGSGTDFTLTINNLQAEDVGDYYCLQDSNYPLTFGAGTK
  Kd: 13.9 nM
